Experimental data as given in publication PMC10385607.

Molecular target: Human ALCAM (28–501)-6xhistidine tag (human) (UniProt Q13740)
Assay: ELISA; competition with CD6-Fc

Sequence of Human ALCAM (28–501)-6xhistidine tag (human) (Q13740 28-501): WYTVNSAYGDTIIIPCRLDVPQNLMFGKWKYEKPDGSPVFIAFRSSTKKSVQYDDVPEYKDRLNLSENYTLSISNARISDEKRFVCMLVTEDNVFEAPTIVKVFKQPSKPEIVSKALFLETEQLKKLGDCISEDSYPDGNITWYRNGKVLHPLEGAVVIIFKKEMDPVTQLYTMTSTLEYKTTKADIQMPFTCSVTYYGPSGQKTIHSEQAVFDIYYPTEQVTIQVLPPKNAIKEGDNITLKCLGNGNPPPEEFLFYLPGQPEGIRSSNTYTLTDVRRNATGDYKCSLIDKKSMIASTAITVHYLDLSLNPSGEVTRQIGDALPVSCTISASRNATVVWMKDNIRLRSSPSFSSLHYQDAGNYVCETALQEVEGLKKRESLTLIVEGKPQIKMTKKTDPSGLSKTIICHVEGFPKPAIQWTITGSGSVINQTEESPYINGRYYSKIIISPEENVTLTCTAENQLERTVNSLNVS

IC50: 5.63 nM
Substance: mini-ab V2D7 (from UniProt P03069)
